Values quoted from earlier work in PMC4388261.

Biological target: Glu35 (UniProt position 53, CAAKFESNFNT)
Settings: not stated (wild-type HEWL; the literature range pools several studies)

Substance: Hen egg-white lysozyme (HEWL, lysozyme C) (Gallus gallus)
- pKa: 6.0–6.8
